Data taken from US20240067748A1 (NONA BIOSCIENCES SUZHOU, published 2024).

Tests used:
[1] = biological target: T1, monkey Trop2 protein (Sino Biological, #90893-C08H) (monkey, UniProt A0A2K5UE71 27-274); assay: BLI, Octet RED96, AHC sensor
T1 construct: bought protein; also called monkey Trop2 protein antigen (His tag)
T1 sequence: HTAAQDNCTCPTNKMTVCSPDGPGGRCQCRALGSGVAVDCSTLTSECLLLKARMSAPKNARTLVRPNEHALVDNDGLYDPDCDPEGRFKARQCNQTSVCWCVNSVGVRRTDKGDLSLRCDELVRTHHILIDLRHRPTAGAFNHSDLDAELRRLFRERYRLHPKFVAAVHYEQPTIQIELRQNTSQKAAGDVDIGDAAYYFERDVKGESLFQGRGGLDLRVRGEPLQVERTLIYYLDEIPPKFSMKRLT
Summary of the method: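 Affinity and on/off rate constants came from real-time association and dissociation traces. The sensor carried human or monkey Trop2 loaded at 200 nM, and 40 nM antibody was applied for 3 min, then buffer for 5 min, at 30° C in PBS pH 7.4 containing 0.1% BSA and 0.02% Tween 20.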

[2] = biological target: T2, mouse Trop2-his protein (Sino Biological, #50922-M08H) (mouse, UniProt Q8BGV3 25-270); assay: ELISA, plate coated with mouse Trop2-his protein, anti-human IgG (H+L)-HRP, OD450 nm
T2 construct: bought protein; also called mouse Trop2 protein; not shown: his tag
T2 sequence (looked up): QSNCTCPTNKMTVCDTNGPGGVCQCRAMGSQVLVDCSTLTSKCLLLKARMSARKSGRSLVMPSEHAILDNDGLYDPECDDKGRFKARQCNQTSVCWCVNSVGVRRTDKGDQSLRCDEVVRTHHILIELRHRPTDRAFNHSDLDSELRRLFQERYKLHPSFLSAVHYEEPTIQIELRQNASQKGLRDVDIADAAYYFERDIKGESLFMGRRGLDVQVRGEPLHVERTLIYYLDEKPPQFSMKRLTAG
Protocol: An ELISA plate was coated with 100 μL of 1 μg/mL mouse Trop2-his protein (Sino Biological, #50922-M08H) in PBS at 4° C. overnight. The plate was blocked with 200 μL of PBST (PBS+0.05% tween 20)+2% BSA at 37° C. for 1 h. The plate was washed 4 times with PBST. 100 μL of Trop2 antibody diluted in a gradient (5-fold dilution, starting concentration: 33.33 nM) was added to the ELISA plate and the plate was incubated at 37° C. for 1 h. The plate was washed 4 times with PBST. 100 μL of anti-human IgG (H+L)-HRP (Sigma, #A8667) diluted in 1:4000 was added and the plate was incubated at 37° C. for 1 h. The plate was washed 4 times with PBST. 100 μL of TMB substrate (Invitrogen, #88-7025-88) was added and the plate was incubated at room temperature for 5 min, and then 50 μL of stop buffer (BBI life sciences, #E661006-0200) was added to stop the reaction. The OD450 nm reading was recorded using a microplate reader (Perkin Elmer, EnSpire).

[3] = biological target: T1, monkey Trop2 protein (Sino Biological, …); assay: SPR, Biacore T200, antigen immobilised on CM5 chip
Protocol: (§1) HBS-EP+ (10 mM HEPES, 150 mM NaCl, 3 mM EDTA, and 0.05% P20, pH 7.4, GE Healthcare, BR-1001-88) was used as a running buffer throughout the test. […] Data were analyzed using Biacore T200 (GE Healthcare, T200 model, #BIAC-B20-03) Evaluation 3.1 software.

[4] = biological target: T3, human TROP2 protein (Sino Biological, #10428-H08H) (human, UniProt P09758 27-274); assay: SPR, Biacore T200, antigen immobilised on CM5 chip
T3 construct: bought protein; also called human Trop2 protein antigen (His tag); not shown: His tag
T3 sequence (looked up): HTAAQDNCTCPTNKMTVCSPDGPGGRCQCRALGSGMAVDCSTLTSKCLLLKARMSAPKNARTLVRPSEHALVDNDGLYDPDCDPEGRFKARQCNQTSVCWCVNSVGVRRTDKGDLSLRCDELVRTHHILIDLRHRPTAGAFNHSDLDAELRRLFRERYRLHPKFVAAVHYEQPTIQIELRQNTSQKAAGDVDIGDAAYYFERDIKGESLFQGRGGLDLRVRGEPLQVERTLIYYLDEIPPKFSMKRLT
Protocol: as §1

[5] = biological target: T3, human TROP2 protein (Sino Biological, …); assay: BLI epitope binning (Octet), biotinylated human Trop2 on SA sensor; row = primary antibody; competitor (secondary antibody, column): hRS7
Protocol: The biotinylated mixture after the incubation was washed three times with PBS and a Zeba centrifugal desalting column (Thermo Fisher, #89882) to remove excess biotin. The biotinylated Trop2 protein was captured by an SA sensor (Pall ForteBio, #18-5019) with the loading baseline set at 0.3 nm. The sensor was immersed in a well of assay buffer containing 50 nM primary antibody for 300 s. […] The binding assay was performed by comparing the binding of the secondary antibody to Trop2 in the presence of the primary antibody to the blocking of the primary antibody itself.

B1: PR001130 (antibody, human IgG1, kappa, V domains shown)
VH: QVQLQESGPGLVKPSGTLSLTCAVSGDSISSHNWWSWVRQPPGKGLEWIGEIYHSGITSYNPSLKSRVTISVDKSKNQFSLKLNSVTAADTAMYYCARGSGVISYFDYWGQGTLVTVSS
VL: DIQMTQSPSTLSASVGDRVTITCRASQSIGNWLAWYQQKPGKAPKLLIYKASSLESGVPSRFSGSGSGTEFTLTISSLQPDDFATYYCQQYDSYSPITFGQGTRLEIKR
notes: fully human IgG1/kappa; also called antibody No. (2)
B1 gave a Kd [1] of under 0.001 nM, a Response [1] of 0.315 and a koff [1] of under 1e-07 s⁻¹. For the same binder, the kon [1] was 37700 M⁻¹ s⁻¹ and the binding result [2] was “no binding”.

B2: PR001142 (antibody, human IgG1, kappa, V domains shown)
VH: QVQLQESGPGLVKPSGTLSLTCAVSGDSISSNNWWSWVRQPPGKGLEWIGEIYPGGNPNYNPSLKSRVTISVDKSKNQFSLKLNSVTAADTAVYYCARGSGVISYFDYWGQGTLVTVSS
VL: DIQMTQSPSTLSASVGDRVTITCRASQSIGHWLAWYQQKPGKAPKLLIYKASSLESGVPSRFRGSGSGTEFTLTISSLQPDDFATYYCQQYSSYSPITFGQGSRLEIKR
notes: fully human IgG1/kappa; also called antibody No. (9)
B2 gave a Kd [1] of 0.26 nM, a Response [1] of 0.382 and a koff [1] of 4.29e-05 s⁻¹. It also gave a kon [1] of 165000 M⁻¹ s⁻¹, a Kd [3] of 0.374 nM and a koff [3] of 0.000179 s⁻¹. It also gave a kon [3] of 479000 M⁻¹ s⁻¹, a Kd [4] of 0.53 nM and a koff [4] of 0.000252 s⁻¹. For the same binder, the kon [4] was 475000 M⁻¹ s⁻¹, the binding result [2] was “no binding” and the “Inhibition rate (%)” value [5] was 97.8%.

B3: PR001165 (antibody, human IgG1, kappa, V domains shown)
VH: QVQLVESGGGVVQPGRSLRLSCEASGFTFSHYGMHWVRQAPGKGLEWVAVIWYDGIKTYYVESVKGRFTISRDNSKNTLNLQMNRLRAEDTAVYYCARDGGFGESNYYGLDVWGQGTTVTVSS
VL: DIQLTQSPSFLSASVGDRVTITCRASQGISSYLGWYQQKPGKAPKLLIYIASTLQSGVPSRFSGSGSGTEFTLTISSLQPEDFATYYCQQLNSYPYTFGQGTKLEIKR
notes: fully human IgG1/kappa; also called antibody No. (26)
With B3 the Kd [1] was 0.26 nM, the Response [1] was 0.393 and the koff [1] was 2.62e-05 s⁻¹. The kon [1] was 101000 M⁻¹ s⁻¹, the Kd [3] was 0.491 nM and the koff [3] was 0.000125 s⁻¹. It also gave a kon [3] of 255000 M⁻¹ s⁻¹, a Kd [4] of 0.495 nM and a koff [4] of 0.000152 s⁻¹. For the same binder, the kon [4] was 307000 M⁻¹ s⁻¹, the binding result [2] was “no binding” and the “Inhibition rate (%)” value [5] was 96.4%.

B4: PR001166 (antibody, human IgG1, kappa, V domains shown)
VH: QVQLQESGPGLVKPSETLSLTCAVSGYSISSGYFWAWIRQPPGKGLEWIGSIYHSGRTHYNPSLKSRVIISLDTSKNQFSLKLRSVTAADSAVYYCAREGYASGSYYWGQGTLVTVSS
VL: EIVMTQSPATLSVSPGERATLSCRSSQSVNNYLAWFQQKPGQAPRLLIYDSSTRATGIPARFSGSGSGTEFTLTISSLQSEDFAFYFCQQYENWPLTFGGGTKVEIKR
notes: fully human IgG1/kappa; also called antibody No. (27)
For B4, the Kd [1] was under 0.001 nM, the Response [1] was 0.322 and the koff [1] was under 1e-07 s⁻¹. For the same binder, the kon [1] was 316000 M⁻¹ s⁻¹, the Kd [3] was 0.0856 nM and the koff [3] was 0.000137 s⁻¹. It also gave a kon [3] of 1.59e+06 M⁻¹ s⁻¹, a Kd [4] of 0.0279 nM and a koff [4] of 5.78e-05 s⁻¹. The kon [4] was 2.07e+06 M⁻¹ s⁻¹, the binding result [2] was “binds” and the “Inhibition rate (%)” value [5] was 21.8%.

B5: comparative example 2 antibody Tab (hRS7) (antibody, human IgG1, kappa, V domains shown)
VH: QVQLQQSGSELKKPGASVKVSCKASGYTFTNYGMNWVKQAPGQGLKWMGWINTYTGEPTYTDDFKGRFAFSLDTSVSTAYLQISSLKADDTAVYFCARGGFGSSYWYFDVWGQGSLVTVSS
VL: DIQLTQSPSSLSASVGDRVSITCKASQDVSIAVAWYQQKPGKAPKLLIYSASYRYTGVPDRFSGSGSGTDFTLTISSLQPEDFAVYYCQQHYITPLTFGAGTKVEIKR
notes: prepared on the basis of sacituzumab govitecan (ChemPartner, #T07-001); naked antibody
Work on B5 yielded a Kd [1] of 0.137 nM, a Response [1] of 0.322 and a Kd [3] of 0.619 nM. The Kd [4] was 0.601 nM and the “Inhibition rate (%)” value [5] was 96.5%.

B6: PR001139 (antibody, human IgG1, kappa, V domains shown)
VH: QVQLVESGGGVVQPGRSLRLSCAASGFTFSSFGMQWVRQGPGKGLEWVAVMWFDGSNKYYVDSVKGRFTISRDNSKNTLYLQMNSLRAEDTAVYYCARLDFSGWPLIDYWGQGTLVTVSS
VL: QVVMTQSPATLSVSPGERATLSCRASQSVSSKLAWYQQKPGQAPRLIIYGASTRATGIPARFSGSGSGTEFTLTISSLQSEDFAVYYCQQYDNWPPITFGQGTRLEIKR
notes: fully human IgG1/kappa; also called antibody No. (8)
For B6, the Kd [1] was 7.75 nM, the Response [1] was 0.328 and the koff [1] was 0.000528 s⁻¹. For the same binder, the kon [1] was 68100 M⁻¹ s⁻¹ and the binding result [2] was “binds”.

B7: PR001128 (antibody, human IgG1, kappa, V domains shown)
VH: QVQLQESGPGLVKPSGTLSLTCAVSGGSISSSNWWSWVRQPPGKGLEWIGEIFHSGTTYYNPSLKSRVTILVDKSKNQFSLKLSSVTAADTAVYYCARDNTKSWDHFDHWGQGTLVTVSS
VL: EIVLTQSPATLSLSPGERATLSCRASQSVGSYLAWYQQKPGQAPSLLIYDASNRATGIPARFSGSGSGTDFTLTISSLEPEDFAVYYCQQRTNWYTFGQGTKLEIKR
notes: fully human IgG1/kappa; also called antibody No. (1)
For B7, the Kd [1] was under 0.001 nM, the Response [1] was 0.384 and the koff [1] was under 1e-07 s⁻¹. The kon [1] was 83500 M⁻¹ s⁻¹ and the binding result [2] was “no binding”.

B8: PR001133 (antibody, human IgG1, kappa, V domains shown)
VH: QVNLVESGGGVVQPGRSLKLSCAASGFTFSSYGMHWVRQAPGKGLEWVALIWSDGTNRYYTESVKGRFTISRDNSKNTLSLQMKSLRAEDTAVYYCAKDGWGTYGEYFQHWGQGTLVTVSS
VL: DIQMTQSPSSLSASVGDRVTITCRASQNINSYLHWYQQKPGKAPKLLIYAASSLQSGVPSRFSGSGSGTDFTLTISSLQPEDFAIYYCQQSYSIPPITFGQGTRLEIKR
notes: fully human IgG1/kappa; also called antibody No. (5)
In the case of B8, the Kd [1] is reported as 2.49 nM, the Response [1] is reported as 0.369 and the koff [1] is reported as 0.000149 s⁻¹. For the same binder, the kon [1] was 59800 M⁻¹ s⁻¹ and the binding result [2] was “no binding”.

B9: PR001162 (antibody, human IgG1, kappa, V domains shown)
VH: QVQLVESGGGVVQPGTSLRLSCVASGFTFSNDGMHWVRQAPGMGLEWVAIMWFDGGSKYYADSVKGRFTISRDNSKNTLYLQMNNLRAEDTAVYYCARDHPHYLGSGSFDYWGQGTLVTVSS
VL: EIVLTQSPATLSLSPGERATLSCRASQSVSSYLAWYQQKPGQAPRLLIYDASNRATGIPARFSGSGSGTDFTLTISSLQAEDVAVYYCQQYYSTPYTFGQGTKLEIKR
notes: fully human IgG1/kappa; also called antibody No. (23)
B9 gave a Kd [1] of 3.66 nM, a Response [1] of 0.37 and a koff [1] of 0.000732 s⁻¹. For the same binder, the kon [1] was 200000 M⁻¹ s⁻¹ and the binding result [2] was “no binding”.
